Test results taken from the supplement of paper PMC9112550, “Optimization of the antimicrobial peptide Bac7 by deep mutational scanning” (BMC Biology, 2022).

Test system: Escherichia coli TOP10
Assay: shrunken log2 fold change of peptide-encoding DNA abundance (4.5 h post-induction vs induction); higher = less antimicrobial activity (less host growth inhibition)
Settings: time post-induction: 4.5 h; library: site-saturation at positions 5, 18, 19, 20
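Also: peptides expressed intracellularly from a pBAD plasmid library in pooled LB shake-flask culture, induced with 0.3% L-arabinose, DNA abundance read by NGS, three biological replicates, DESeq2 with apeglm shrinkage.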

Sequence | shrunken log2 fold change
RRIRRRPPRLPRPRPRPQSLPRP | -0.0788
RRIRGRPPRLPRPRPRPFMMPRP | -0.467
RRIRWRPPRLPRPRPRPQVMPRP | 0.209
RRIRVRPPRLPRPRPRPRPMPRP | 0.445
RRIRIRPPRLPRPRPRPMFQPRP | 0.0263
RRIRARPPRLPRPRPRPVNAPRP | -0.0521
RRIRIRPPRLPRPRPRPDLRPRP | -0.0147
RRIRFRPPRLPRPRPRPKKLPRP | 0.173
RRIRPRPPRLPRPRPRPHLKPRP | -0.000265
RRIRIRPPRLPRPRPRPHHHPRP | -0.719
RRIRHRPPRLPRPRPRPHIDPRP | -0.241
RRIRTRPPRLPRPRPRPMSVPRP | -0.00965
RRIRIRPPRLPRPRPRPGKRPRP | 0.0192
RRIRPRPPRLPRPRPRPQYHPRP | -0.68
RRIRQRPPRLPRPRPRPWQRPRP | -0.0557
RRIRLRPPRLPRPRPRPLYCPRP | -0.366
RRIRRRPPRLPRPRPRPAPLPRP | 0.857
RRIRMRPPRLPRPRPRPGSKPRP | 0.479
RRIRGRPPRLPRPRPRPLTYPRP | 0.279
RRIRGRPPRLPRPRPRPKAVPRP | 0.89
RRIRMRPPRLPRPRPRPDLGPRP | 0.11
RRIRTRPPRLPRPRPRPYIMPRP | -0.753

Sequence | shrunken log2 fold change
RRIRWRPPRLPRPRPRPWGGPRP | 0.556
RRIRERPPRLPRPRPRPPSYPRP | -0.0583
RRIRKRPPRLPRPRPRPNKRPRP | -0.0102
RRIRPRPPRLPRPRPRPEALPRP | 0.439
RRIRVRPPRLPRPRPRPYEIPRP | -0.14
RRIRLRPPRLPRPRPRPIVPPRP | 0.0358
RRIRPRPPRLPRPRPRPAQRPRP | 0.104
RRIRVRPPRLPRPRPRPWDIPRP | -0.235
RRIRQRPPRLPRPRPRPTAGPRP | 0.144
RRIRHRPPRLPRPRPRPQCDPRP | -0.13
RRIRIRPPRLPRPRPRPTMCPRP | -0.386
RRIRSRPPRLPRPRPRPNSKPRP | -0.382
RRIRIRPPRLPRPRPRPILHPRP | -0.469
RRIRARPPRLPRPRPRPSFFPRP | 0.238
RRIRPRPPRLPRPRPRPTMQPRP | 0.393
RRIRDRPPRLPRPRPRPERLPRP | 0.659
RRIRTRPPRLPRPRPRPARNPRP | 0.199
RRIRDRPPRLPRPRPRPPTMPRP | -0.061
RRIRWRPPRLPRPRPRPMPTPRP | 0.721
RRIRMRPPRLPRPRPRPFHPPRP | -0.0444
RRIRHRPPRLPRPRPRPPQHPRP | -0.177
RRIRLRPPRLPRPRPRPWAGPRP | -0.0317

Sequence | shrunken log2 fold change
RRIRMRPPRLPRPRPRPCPEPRP | 0.123
RRIRHRPPRLPRPRPRPSLDPRP | -0.22
RRIRRRPPRLPRPRPRPLHPPRP | 0.437
RRIRCRPPRLPRPRPRPWTGPRP | -0.422
RRIRFRPPRLPRPRPRPKAKPRP | -0.016
RRIRNRPPRLPRPRPRPPYPPRP | -0.0162
RRIRQRPPRLPRPRPRPKDPPRP | -0.000135
RRIRDRPPRLPRPRPRPMPQPRP | 0.0354
RRIRRRPPRLPRPRPRPLKAPRP | 0.785
RRIRRRPPRLPRPRPRPWERPRP | -0.0262
RRIRVRPPRLPRPRPRPIMQPRP | -0.149
RRIRQRPPRLPRPRPRPWGSPRP | -0.0209
RRIRHRPPRLPRPRPRPNCCPRP | 0.0161
RRIRWRPPRLPRPRPRPDYHPRP | -0.219
RRIRGRPPRLPRPRPRPVWEPRP | 0.761
RRIRRRPPRLPRPRPRPIITPRP | -0.253
RRIRIRPPRLPRPRPRPSNRPRP | -0.139
RRIRARPPRLPRPRPRPAGDPRP | 1.01
RRIRNRPPRLPRPRPRPVINPRP | -0.512
RRIRQRPPRLPRPRPRPQLFPRP | 0.0846
RRIRIRPPRLPRPRPRPNPNPRP | -0.556
RRIRARPPRLPRPRPRPHMAPRP | -0.183

Sequence | shrunken log2 fold change
RRIRSRPPRLPRPRPRPWFGPRP | -0.124
RRIRCRPPRLPRPRPRPMSHPRP | -0.207
RRIRFRPPRLPRPRPRPPQQPRP | -0.0751
RRIRHRPPRLPRPRPRPQRVPRP | -0.139
RRIRFRPPRLPRPRPRPREKPRP | -0.0136
RRIRTRPPRLPRPRPRPVQNPRP | 0.138
RRIRSRPPRLPRPRPRPYHCPRP | -0.255
RRIRSRPPRLPRPRPRPDCRPRP | 0.0345
RRIRTRPPRLPRPRPRPSYYPRP | -0.786
RRIRNRPPRLPRPRPRPFRQPRP | 0.0231
RRIRQRPPRLPRPRPRPMIVPRP | 0.000655
RRIRTRPPRLPRPRPRPMAEPRP | 0.117
RRIRERPPRLPRPRPRPIHVPRP | -0.274
RRIRKRPPRLPRPRPRPHTIPRP | 0.00577
RRIRIRPPRLPRPRPRPQRRPRP | 0.19
RRIRGRPPRLPRPRPRPWMPPRP | 0.105
RRIRKRPPRLPRPRPRPHQWPRP | 0.264
RRIRYRPPRLPRPRPRPSICPRP | -0.0533
RRIRYRPPRLPRPRPRPEQMPRP | 0.195
RRIRPRPPRLPRPRPRPYAGPRP | -0.00254
RRIRQRPPRLPRPRPRPKNIPRP | -0.652
RRIRERPPRLPRPRPRPGDIPRP | -0.072

Sequence | shrunken log2 fold change
RRIRTRPPRLPRPRPRPLAIPRP | 0.00788
RRIRTRPPRLPRPRPRPFHRPRP | -0.469
RRIRKRPPRLPRPRPRPPRYPRP | 0.525
RRIRFRPPRLPRPRPRPRTNPRP | -0.179
RRIRTRPPRLPRPRPRPIFEPRP | -0.113
RRIRGRPPRLPRPRPRPDLMPRP | 0.878
RRIRDRPPRLPRPRPRPRPFPRP | 0.691
RRIRQRPPRLPRPRPRPDTVPRP | -0.171
RRIRCRPPRLPRPRPRPPPMPRP | 1.08
RRIRVRPPRLPRPRPRPNTLPRP | -0.478
RRIRLRPPRLPRPRPRPVFIPRP | -0.454
RRIRARPPRLPRPRPRPLGQPRP | 0.432
RRIRCRPPRLPRPRPRPFMAPRP | -0.15
RRIRKRPPRLPRPRPRPLKTPRP | -0.151
RRIRSRPPRLPRPRPRPTFHPRP | -0.192
RRIRMRPPRLPRPRPRPDTFPRP | 0.403
RRIRDRPPRLPRPRPRPDDTPRP | 0.336
RRIRRRPPRLPRPRPRPIRNPRP | 0.113
RRIRARPPRLPRPRPRPMLVPRP | 0.291
RRIRCRPPRLPRPRPRPAMWPRP | 0.295
RRIRIRPPRLPRPRPRPRLTPRP | -0.0559
